According to article PMC11891140:
Each block holds one molecule with its values, some of them ahead of it.

How the values were obtained:
[1] = biological target: RAB-10 used in GST pull-downs, loaded with GTPγS or GDP (UniProt Q94148); experiment: GST pull-down; conditions: GST::RAB-10 loaded with GTPγS; in vitro translated HA-tagged prey; three independent replicates; parent: est. 6.1; read off a plot
[2] = biological target: EGL-8 used as bait in GST pull-downs of UNC-16 domains (Fig. 5D, 7J) (UniProt G5EBH0); experiment: GST pull-down; conditions: GST::EGL-8 bait (x label in J' printed as GST::RAB-8); in vitro translated HA-tagged prey; three independent replicates; parent: est. 3.2; read off a plot
[3] = biological target: purified UNC-16-LZII domain fragment (260–849 aa) (C. elegans); experiment: native gel or EMSA; native-PAGE of purified UNC-16-LZII domain and its L360P variant (260–849 aa); dimer formation; three independent experiments
[4] = biological target: T1, purified UNC-16-LZII domain fragment (260–849 aa), L360P variant; experiment: Native-PAGE; conditions: chain shown with the change; three independent experiments; P = 0.0034; parent: est. 0.86; read off a plot
T1 chain: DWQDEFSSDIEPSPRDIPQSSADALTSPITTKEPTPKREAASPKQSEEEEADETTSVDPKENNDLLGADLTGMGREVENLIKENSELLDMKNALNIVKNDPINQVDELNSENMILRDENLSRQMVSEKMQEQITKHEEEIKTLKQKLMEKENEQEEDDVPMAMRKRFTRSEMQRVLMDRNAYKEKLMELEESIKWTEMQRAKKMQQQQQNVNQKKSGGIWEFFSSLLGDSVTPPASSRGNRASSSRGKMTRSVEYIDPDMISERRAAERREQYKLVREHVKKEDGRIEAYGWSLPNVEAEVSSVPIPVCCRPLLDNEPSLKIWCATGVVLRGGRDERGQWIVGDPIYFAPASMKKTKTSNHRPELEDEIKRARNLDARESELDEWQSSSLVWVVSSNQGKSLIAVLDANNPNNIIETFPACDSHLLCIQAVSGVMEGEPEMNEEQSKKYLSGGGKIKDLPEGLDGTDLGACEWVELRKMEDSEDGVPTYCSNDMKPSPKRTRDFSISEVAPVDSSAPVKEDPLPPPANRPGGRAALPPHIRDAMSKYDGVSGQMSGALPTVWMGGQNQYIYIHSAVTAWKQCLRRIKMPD

Chain of UniProt G5EBH0 (G5EBH0 whole entry, the tested form may be a part): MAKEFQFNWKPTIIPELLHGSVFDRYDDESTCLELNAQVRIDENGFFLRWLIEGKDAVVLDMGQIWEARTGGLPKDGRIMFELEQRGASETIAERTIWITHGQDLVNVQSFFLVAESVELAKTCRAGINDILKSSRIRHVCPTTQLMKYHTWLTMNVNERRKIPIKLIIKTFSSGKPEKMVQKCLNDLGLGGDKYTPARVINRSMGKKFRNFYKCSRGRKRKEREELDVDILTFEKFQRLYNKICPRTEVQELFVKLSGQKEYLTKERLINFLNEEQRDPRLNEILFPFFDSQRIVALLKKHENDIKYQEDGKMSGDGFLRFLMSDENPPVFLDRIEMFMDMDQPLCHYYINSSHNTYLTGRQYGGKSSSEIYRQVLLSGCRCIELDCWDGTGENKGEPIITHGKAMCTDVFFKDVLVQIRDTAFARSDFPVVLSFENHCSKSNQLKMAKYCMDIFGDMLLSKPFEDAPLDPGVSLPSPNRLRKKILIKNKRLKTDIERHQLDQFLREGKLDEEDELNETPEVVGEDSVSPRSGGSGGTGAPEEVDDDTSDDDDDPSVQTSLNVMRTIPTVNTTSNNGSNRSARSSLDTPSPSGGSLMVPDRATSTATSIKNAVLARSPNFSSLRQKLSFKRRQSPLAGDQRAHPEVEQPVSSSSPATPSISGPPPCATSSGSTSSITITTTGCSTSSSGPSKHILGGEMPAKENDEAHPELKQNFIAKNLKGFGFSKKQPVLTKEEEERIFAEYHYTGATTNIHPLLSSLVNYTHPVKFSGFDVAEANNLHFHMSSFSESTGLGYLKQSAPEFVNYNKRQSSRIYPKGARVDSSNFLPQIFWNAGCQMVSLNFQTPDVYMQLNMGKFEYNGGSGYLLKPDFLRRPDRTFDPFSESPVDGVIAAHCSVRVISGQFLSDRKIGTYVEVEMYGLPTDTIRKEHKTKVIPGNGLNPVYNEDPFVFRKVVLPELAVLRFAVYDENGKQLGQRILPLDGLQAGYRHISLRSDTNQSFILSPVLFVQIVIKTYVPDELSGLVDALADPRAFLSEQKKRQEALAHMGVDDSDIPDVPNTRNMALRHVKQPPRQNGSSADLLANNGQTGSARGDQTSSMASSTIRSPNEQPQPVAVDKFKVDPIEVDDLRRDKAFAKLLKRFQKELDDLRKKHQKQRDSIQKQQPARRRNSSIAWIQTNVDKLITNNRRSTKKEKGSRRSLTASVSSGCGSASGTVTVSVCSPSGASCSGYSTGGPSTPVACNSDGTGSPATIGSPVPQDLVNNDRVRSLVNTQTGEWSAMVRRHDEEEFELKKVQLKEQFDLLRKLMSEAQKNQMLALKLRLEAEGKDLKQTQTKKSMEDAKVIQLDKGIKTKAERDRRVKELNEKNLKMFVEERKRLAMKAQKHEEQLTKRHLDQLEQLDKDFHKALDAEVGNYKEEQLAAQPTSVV
Chain of UniProt Q94148 (Q94148 whole entry, the tested form may be a part): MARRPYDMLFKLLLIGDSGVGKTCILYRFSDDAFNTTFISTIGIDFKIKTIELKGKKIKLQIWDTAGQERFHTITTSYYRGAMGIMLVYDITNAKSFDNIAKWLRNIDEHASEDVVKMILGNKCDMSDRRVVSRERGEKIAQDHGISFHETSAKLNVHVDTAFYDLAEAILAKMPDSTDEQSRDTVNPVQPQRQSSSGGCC

response (binding/input) [1]: 0.1 | response (binding/input) [2]: 0.1
Molecule: HA-tagged UNC-16 fragment containing the LZII domain (in vitro translated) L353A; N354A; I355A; V356A; K357A; N358A; D359A; L360A; I361A; N362A; Q363A; V364A; D365A; E366A; L367A

stoichiometry N [3]: 2
Molecule: purified UNC-16-LZII domain fragment (260–849 aa) (domain or fragment)

response (binding/input) [2]: 0.65
Molecule: HA-tagged UNC-16 fragment containing the LZII domain (in vitro translated) L360P

other: ratio of dimer to monomer [4]: 0.58
B1: purified UNC-16-LZII domain fragment (260–849 aa) L360P (protein)
chain: DWQDEFSSDIEPSPRDIPQSSADALTSPITTKEPTPKREAASPKQSEEEEADETTSVDPKENNDLLGADLTGMGREVENLIKENSELLDMKNALNIVKNDPINQVDELNSENMILRDENLSRQMVSEKMQEQITKHEEEIKTLKQKLMEKENEQEEDDVPMAMRKRFTRSEMQRVLMDRNAYKEKLMELEESIKWTEMQRAKKMQQQQQNVNQKKSGGIWEFFSSLLGDSVTPPASSRGNRASSSRGKMTRSVEYIDPDMISERRAAERREQYKLVREHVKKEDGRIEAYGWSLPNVEAEVSSVPIPVCCRPLLDNEPSLKIWCATGVVLRGGRDERGQWIVGDPIYFAPASMKKTKTSNHRPELEDEIKRARNLDARESELDEWQSSSLVWVVSSNQGKSLIAVLDANNPNNIIETFPACDSHLLCIQAVSGVMEGEPEMNEEQSKKYLSGGGKIKDLPEGLDGTDLGACEWVELRKMEDSEDGVPTYCSNDMKPSPKRTRDFSISEVAPVDSSAPVKEDPLPPPANRPGGRAALPPHIRDAMSKYDGVSGQMSGALPTVWMGGQNQYIYIHSAVTAWKQCLRRIKMPD
